Experimental data as given in the supplement of paper PMC7877785.
± gives the uncertainty stated by the source.

Assay: self-splicing fitness, log relative to wild type (ln ratio); higher = more splicing; Tetrahymena group I intron in knt gene, E. coli kanamycin selection, DiMSum; sequences stand for … in CUCUCU…GGAGGGAAAAGUUAUCAGGCAUGCACCUGGUAGCUAGUCUUUAAACCAAUAGAUUGCAUCGGUUUAAAAGGCAAGACCGUCAAAUUGCGGGAAAGGGGUCAACAGCCGUUCAGUACCAAGUCUCAGGGGAAACUUUGAGAUGGCCUUGCAAAGGGUAUGGUAAUAAGCUGACGGACAUGGUCCUAACCACGCAGCCAAGUCCUAAGUCAACAGAUCUUCUGUUGAUAUGGAUGCAGUUCACAGACUAAAUGUCGGUCGGGGAAGAUGUAUUCUUCUCAUAAGAUAUAGUCGGACCUCUCCUUAAUGGGAGCUAGCGGAUGAAGUGAUGCAACACUGGAGCCGCUGGGAACUAAUUUGUAUGCGAAAGUAUAUUGAUUAGUUUUGGAGUACUCGUGGUCG
Method in brief: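 Fitness was computed with DiMSum as the error-weighted combination of replicate fold changes, kanamycin versus none, each normalised to wild type. The library randomised all eight intron nucleotides of the P1ex region, with the intron placed in the knt kanamycin-resistance gene on pET-22b(+) in E. coli BL21(DE3). Six replicate transformations were grown overnight at 37°C or 30°C on LB agar with or without 25 μg/mL kanamycin, plus 100 μg/mL carbenicillin, 50 μM IPTG and 0.2% rhamnose. Pooled colonies were amplicon-sequenced on an Illumina HiSeq 2500.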

Sequence	self-splicing fitness (ln) (30 °C)	self-splicing fitness (ln) (37 °C)
CGUUAGCAAUAUUACGACAC	-2.43 ± 0.21	-0.891 ± 0.19
AGCCAGCAAUAUUACGAAUG		-2.45 ± 0.28
UCUGAGCAAUAUUACGGUAU	-2.41 ± 0.18	-2.5 ± 0.44
UUCUAGCAAUAUUACGUAUU	-3.61 ± 0.33	-2.57 ± 0.25
AGCCAGCAAUAUUACGAGUG	-3.63 ± 0.2	-2.13 ± 0.14
CGCGAGCAAUAUUACGUCAU	-2.66 ± 0.23	-1.97 ± 0.33
CUGUAGCAAUAUUACGGAUG	-3.23 ± 0.27	-0.812 ± 0.18
CCCCAGCAAUAUUACGCGGC	-2.98 ± 0.16	-3.16 ± 0.4
GAAGAGCAAUAUUACGUGUG	-3.15 ± 0.22	-2.67 ± 0.18
CUCGAGCAAUAUUACGAAGU	-3.64 ± 0.43	-1.84 ± 0.35
GGUUAGCAAUAUUACGCCUC	-0.314 ± 0.17	-1.4 ± 0.2
GUUCAGCAAUAUUACGGAGU	-1.48 ± 0.12	-0.963 ± 0.15
UUACAGCAAUAUUACGCAAG	-1.73 ± 0.1	-0.345 ± 0.12
GUUCAGCAAUAUUACGCGGG	-2.32 ± 0.14	-0.613 ± 0.1
GUUCAGCAAUAUUACGUGAC	-1.85 ± 0.11	-2.22 ± 0.12
UGUGAGCAAUAUUACGGUUA	-2.47 ± 0.2	-0.332 ± 0.16
GAACAGCAAUAUUACGUCUC	-2.17 ± 0.17	-0.443 ± 0.16
UUUCAGCAAUAUUACGUUCA	-1.04 ± 0.13	-0.407 ± 0.15
CACAAGCAAUAUUACGCUCC	-1.93 ± 0.16	-1.66 ± 0.22
ACGCAGCAAUAUUACGAGAG	-3.3 ± 0.11	-1.78 ± 0.1
CGUAAGCAAUAUUACGGUAU	-3.71 ± 0.37	-2.56 ± 0.26
AUCGAGCAAUAUUACGGGGA	-2.83 ± 0.22	-1.18 ± 0.15
UCUGAGCAAUAUUACGUUUA	-2.83 ± 0.17	-2.65 ± 0.19
CCUUAGCAAUAUUACGAAUG	-1.27 ± 0.11	-0.423 ± 0.1
ACAGAGCAAUAUUACGCACG	-3.11 ± 0.22	-3.43 ± 0.25

Sequence	self-splicing fitness (ln) (30 °C)	self-splicing fitness (ln) (37 °C)
CGUGAGCAAUAUUACGGGAG	-3.67 ± 0.24	-2.52 ± 0.19
UACAAGCAAUAUUACGGUGC	-3.55 ± 0.26	-2.35 ± 0.21
GUUUAGCAAUAUUACGAUUC	-0.603 ± 0.098	0.273 ± 0.14
GUUCAGCAAUAUUACGUCUC	-0.362 ± 0.065	0.216 ± 0.083
UAACAGCAAUAUUACGAACA	-0.546 ± 0.072	0.297 ± 0.087
AGGAAGCAAUAUUACGCGAG	-1.55 ± 0.13	-1.31 ± 0.15
CAUUAGCAAUAUUACGUUUG	-2.16 ± 0.1	-1.51 ± 0.13
CUUAAGCAAUAUUACGCAUU	-3.82 ± 0.2	-1.92 ± 0.17
AAACAGCAAUAUUACGUGGC	-3.05 ± 0.2	-2.35 ± 0.14
UCAAAGCAAUAUUACGAGGA	-2.69 ± 0.15	-0.561 ± 0.13
GGCGAGCAAUAUUACGUACA	-1 ± 0.18	0.151 ± 0.15
ACGCAGCAAUAUUACGACGA	-0.25 ± 0.1	0.113 ± 0.12
CCGUAGCAAUAUUACGGCAA	-3.49 ± 0.43	-2.42 ± 0.42
AAAAAGCAAUAUUACGGCAC	-0.499 ± 0.076	-0.593 ± 0.1
AUGCAGCAAUAUUACGGCAC	-1.72 ± 0.25	-1.29 ± 0.26
GAGGAGCAAUAUUACGAGGU	-2.71 ± 0.24	-3.09 ± 0.25
AUCAAGCAAUAUUACGAUUA	-1.28 ± 0.11	-0.622 ± 0.13
UAACAGCAAUAUUACGACCG	-0.596 ± 0.09	-0.323 ± 0.11
CAUUAGCAAUAUUACGUCUA	-2.74 ± 0.17	-2.2 ± 0.17
UAUUAGCAAUAUUACGACCU	-1.41 ± 0.16	-0.551 ± 0.15
CAAGAGCAAUAUUACGCACA	-2.72 ± 0.36	-1.53 ± 0.43
AAGUAGCAAUAUUACGCAGA	-4.11 ± 0.24	-1.54 ± 0.1
UGCGAGCAAUAUUACGUUUC		-2.62 ± 0.36
GCGAAGCAAUAUUACGGUAG	-4.07 ± 0.42	-2.77 ± 0.26
AUCAAGCAAUAUUACGUACA	-1.21 ± 0.1	-0.544 ± 0.12

Sequence	self-splicing fitness (ln) (30 °C)	self-splicing fitness (ln) (37 °C)
AACGAGCAAUAUUACGAAUU	-2.78 ± 0.11	-2.16 ± 0.12
UAUGAGCAAUAUUACGUUGU	-4.16 ± 0.24	-2.27 ± 0.18
ACAGAGCAAUAUUACGGGGG	-3.7 ± 0.19	-2.31 ± 0.2
AAAAAGCAAUAUUACGUCCG	-1.05 ± 0.11	-0.195 ± 0.13
GUUGAGCAAUAUUACGUAUU	-3.74 ± 0.47	
AUCUAGCAAUAUUACGACUC	-0.0532 ± 0.28	
GAUUAGCAAUAUUACGGUUU	-0.946 ± 0.083	0.231 ± 0.11
UAGAAGCAAUAUUACGUAGU	-3.71 ± 0.25	-2.01 ± 0.22
UUAUAGCAAUAUUACGACUA	-0.12 ± 0.23	-0.299 ± 0.2
CGGGAGCAAUAUUACGUUUA	-3.47 ± 0.31	-1.8 ± 0.28
UUCAAGCAAUAUUACGCGUC	-2.89 ± 0.15	-0.969 ± 0.16
AGGGAGCAAUAUUACGCUGC	-3.96 ± 0.29	-2.35 ± 0.23
AGUUAGCAAUAUUACGCAUC	-3.63 ± 0.43	-1.68 ± 0.23
ACGUAGCAAUAUUACGGGAG	-3.63 ± 0.17	-2.28 ± 0.17
AACUAGCAAUAUUACGCAUC	-2.73 ± 0.14	-2.28 ± 0.22
GGAAAGCAAUAUUACGUCAG	-3.08 ± 0.38	-2.25 ± 0.27
AAGCAGCAAUAUUACGUACC	-1.17 ± 0.19	-0.569 ± 0.22
AAACAGCAAUAUUACGCAAU	-2.97 ± 0.081	-1.4 ± 0.076
AAUCAGCAAUAUUACGGAUG	-0.144 ± 0.066	0.153 ± 0.085
UCAUAGCAAUAUUACGCCGU	-3.49 ± 0.34	-1.85 ± 0.39
CAUCAGCAAUAUUACGCGUG	-3.13 ± 0.095	-2.16 ± 0.092
CCGAAGCAAUAUUACGAUCC	-3.91 ± 0.46	-2.46 ± 0.45
ACGUAGCAAUAUUACGUCUA	-0.802 ± 0.27	-1.22 ± 0.18
CAAGAGCAAUAUUACGGGGA	-3.21 ± 0.32	-2.67 ± 0.28
GCAAAGCAAUAUUACGCAGU	-3.23 ± 0.28	-2.42 ± 0.23

Sequence	self-splicing fitness (ln) (30 °C)	self-splicing fitness (ln) (37 °C)
UAGCAGCAAUAUUACGCCGU	-2.13 ± 0.13	-1.24 ± 0.15
GACCAGCAAUAUUACGAGCU	-2.91 ± 0.14	-1.41 ± 0.15
UUCAAGCAAUAUUACGGUGU	-2.98 ± 0.18	-2.49 ± 0.17
GCCCAGCAAUAUUACGCAAG	-2.79 ± 0.093	-2.46 ± 0.14
ACAUAGCAAUAUUACGAUUA	-0.756 ± 0.1	-0.602 ± 0.14
GAGUAGCAAUAUUACGUGGA	-3.37 ± 0.28	-2.52 ± 0.17
CUUCAGCAAUAUUACGUGGU	-3.25 ± 0.21	-2.22 ± 0.24
ACGCAGCAAUAUUACGACGC	0.036 ± 0.062	0.169 ± 0.082
ACAGAGCAAUAUUACGGAAC		-1.97 ± 0.36
AGUUAGCAAUAUUACGUGUC	-2.09 ± 0.33	-1.42 ± 0.36
UACAAGCAAUAUUACGUCCU	-1.16 ± 0.1	0.292 ± 0.15
CCGGAGCAAUAUUACGUUGC	-2.35 ± 0.32	
AGUUAGCAAUAUUACGGGCA	-0.103 ± 0.13	-0.162 ± 0.15
GUUAAGCAAUAUUACGUGAC	-1.93 ± 0.24	-2.56 ± 0.37
UUUGAGCAAUAUUACGUGGG	-2.17 ± 0.47	-1.39 ± 0.3
UAAAAGCAAUAUUACGUAGU	-3.36 ± 0.12	-2.83 ± 0.14
UCUGAGCAAUAUUACGAGUC	-2.7 ± 0.41	
CGCAAGCAAUAUUACGGCAA	-1.41 ± 0.1	-0.0385 ± 0.081
CGCGAGCAAUAUUACGGAAC	-3.86 ± 0.22	-2.43 ± 0.29
CUUAAGCAAUAUUACGAACG	-0.163 ± 0.11	0.187 ± 0.14
UAUGAGCAAUAUUACGGCUA	-0.67 ± 0.14	-1.16 ± 0.16
UGCGAGCAAUAUUACGGACG	-1.24 ± 0.15	-1.19 ± 0.17
